doi:10.1101/2020.02.12.945170 (2020)
Square brackets hold non-standard residues; d marks the D form. Ends that are not written are not given here. * marks the point of attachment. Biotin = O=C1N[C@H]2[C@H](CS[C@H]2CCCCC(=O)*)N1; pY = N[C@@H](Cc1ccc(OP(=O)(O)O)cc1)C(=O)O

B1: ZAP70 tSH2-GFP (tandem SH2 domains of human ZAP70, amino acids 1-264, with C-terminal GFP) (domain or fragment)
chain: MPDPAAHLPFFYGSISRAEAEEHLKLAGMADGLFLLRQCLRSLGGYVLSLVHDVRFHHFPIERQLNGTYAIAGGKAHCGPAELCEFYSRDPDGLPCNLRKPCNRPSGLEPQPGVFDCLRDAMVRDYVRQTWKLEGEALEQAIISQAPQVEKLIATTAHERMPWYHSSLTREEAERKLYSGAQTDGKFLLRPRKEQGTYALSLIYGKTVYHYLISQDKAGKYCIPEGTKFDTLWQLVEYLKLKADGLIYCLKEACPNSSASNASG

Key:
[1] = target: T1, Avi-CD3ζ ITAM3 (full intracellular tail of CD3ζ, amino acids 52-164, all tyrosines mutated to Ala except the … (UniProt P20963-1 52-164, biotin on the Avitag; tyrosines of ITAM3 phosphorylated in vitro by Lck); experiment: SPR; phosphorylated on ITAM3; dissociation phase fit
T1 sequence (P20963 52-164, change not shown): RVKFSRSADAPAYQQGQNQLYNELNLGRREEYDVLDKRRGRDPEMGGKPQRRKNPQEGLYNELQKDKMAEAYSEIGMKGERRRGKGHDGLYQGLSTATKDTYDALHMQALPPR

[2] = target: T1, Avi-CD3ζ ITAM3 (full intracellular tail …); experiment: SPR; phosphorylated on ITAM3; from kobs plot intercept
[3] = target: B1; experiment: SPR; 37°C
[4] = target: B1; experiment: SPR
[5] = target: B1; experiment: SPR; 37°C
[6] = target: B1; experiment: SPR
[7] = target: B1; experiment: single-particle tracking TIRF

Row | koff [1] [s⁻¹] | koff [2] [s⁻¹] | Kd [3] [µM] | Kd [4] [µM] | koff [5] [s⁻¹] | koff [6] [s⁻¹] | koff [7] [s⁻¹] | Binder
1 | 0.25 | 0.21 | – | – | – | – | – | B1
2 | – | – | 7.52 | 7.52 | – | – | – | Biotin-GKGHDLLYQGLSTATKDT[pY]DALHMQ [ITAM3 C (C-monophosphorylated CD3ζ ITAM3 peptide)]
3 | – | – | 20.7 | 20.7 | 5.5 | 5.5 | 4.8 | Biotin-GKGHDLL[pY]QGLSTATKDTYDALHMQ [ITAM3 N (N-monophosphorylated CD3ζ ITAM3 peptide)]
